Data set [1] is described as follows: Optimal pH (assay method 3). The data set is classed as biochemical. The conditions noted are these: 50 mM buffers, 37° C. As to the method: Glycerol kinase activity was assayed after reaction in each 50 mM buffer at 37° C. for 5 minutes. […] Black circles express the reaction in the presence of 50 mM MES buffer; black squares express the reaction in the presence of 50 mM HEPES buffer; black diamonds express the reaction in the presence of TAPS buffer; black triangles express the reaction in the presence of 50 mM CHES buffer; and white circles express the reaction in the presence of 50 mM glycine-NaOH.
After dividing 3 ml of an active reaction solution (50 mM buffer at each pH, containing 4 mM ATP and 2 mM magnesium chloride) in a test tube, 0.1 ml of a glycerol kinase solution after dilution to an appropriate concentration (about 1 U/ml of the activity measured according to the assay method 1) was added thereto and mixed thoroughly. […] After adding 0.15 ml of the reaction-terminated solution to 3 ml of a chromogenic solution (0.2 M HEPES buffer of pH 7.9 containing 0.01% 4-aminoantipyrin, 0.02% phenol, 5 U/ml peroxidase and 16 U/ml glycerol-3-phosphoric acid oxidase) and mixing, reaction at 37° C. for about 5 minutes was carried out to measure the absorbance at 500 nm. Then, the absorbance of 1 mM L-glycerol-3-phosphoric acid solution was simultaneously measured. The amount of L-glycerol-3-phosphoric acid produced via each enzyme reaction was determined. […]

Data set [2] is described as follows: Km value for ATP (Lineweaver-Burk, assay method 1). The conditions noted are these: ATP concentration changed. The data set is classed as biochemical. As to the method: (§1) Generally, the activity was assayed by the method. Using glycerol as substrate, the enzyme activity was assayed on the basis of the amount of produced glycerol-3-phosphoric acid. By adding 0.1 M HEPES buffer of pH 7.9 to 0.2 ml of 0.5% 4-aminoantipyrine solution, 0.2 ml of 1.5% phenol solution, 200 U of the oxidase of glycerol-3-phosphoric acid, 80 U of peroxidase, and 48.4 mg of ATP, a total volume is adjusted to be 21 ml. The resulting solution was used as the stock solution for the following assays. To 3 ml of the assay stock solution, 50 μl of 0.3 M glycerol solution and 100 μl of the enzyme solution were added and mixed. Each reaction was assayed by recording the absorbance at 500 nm for 3 minutes with a spectrophotometer which is controlled to be 37° C., and calculating the change of the absorbance per minute on the initial linear part (triangle OD test). A blank test was conducted by adding 100 μl of a diluted enzyme solution (20 mM potassium phosphate buffer of pH 7.5 containing 0.2% bovine serum albumin) instead of the enzyme solution and carrying out the same procedures as described above and calculating the change of the absorbance per minute (triangle OD blank). […]

Data set [3] can be described thus: Resistance against preservative (remaining activity ratio). It is filed as physicochemical. As to the method: After dissolving glycerol kinase from each origin in 50 mM potassium phosphate buffer of pH 7.5 to become about 5 U/ml, each preservative was added at a concentration shown in the figure and stored at 4° C. for one week, to assay the remaining activity. […] The remaining activity ratio of the enzyme from each origin is shown in the order from the top as the activity when 0.3 mM ProClin® 300 is present, […] ProClin® 150 is present, 500 mg/L IZU is present, 100 mg/L MIT is present and no preservative is added.
After dissolving glycerol kinase from each origin in 50 mM potassium phosphate buffer of pH 7.5 to become about 5 U/ml, each preservative was added at a concentration shown in the figure and stored at 25° C. for one week to assay the remaining activity. […] The remaining activity ratio of the enzyme from each origin is shown in the order from the top as the activity when 0.3 mM ProClin® 300 is present, 0.8 mM ProClin® 150 is present, 500 mg/L IZU is present, 100 mg/L MIT is present and no preservative is added.
The resistance against preservative in the present invention can be evaluated on the basis of the remaining activity ratio when about 5 U/mL glycerol kinase coexists with preservative at 25° C. for one week in 50 mM potassium phosphate buffer of pH 7.5.
The Km values of glycerol and ATP were calculated according to the Lineweaver-Burk equation according to the method described in the section “Method for assaying glycerol kinase activity” <method 1>, wherein the concentration of glycerol or ATP was changed to assay the glycerol kinase activity at each substrate concentration. • (8) Relative activity: About 41.2 U/mg • (9) Resistance against the presence of preservative: Remaining activity ratio in coexistence with 100 mg/L MIT in 50 mM potassium phosphate buffer of pH 7.5 is shown in FIGS. 5 and 6. The activity was assayed according to the method 1.

Data set [4] is described as follows: pH stability of glycerol kinase. The data set is classed as physicochemical. The conditions noted are these: 20 hr treatment at 25° C. As to the method: Glycerol kinase was dissolved in each of 50 mM buffers to become about 10 U/ml and stored at 25° C. for 20 hours. Subsequently, glycerol kinase activity was assayed to determine remaining activity. […] Black circles express the reaction in the presence of acetate buffer; black squares express the reaction in the presence of potassium phosphate buffer; black diamonds express the reaction in the presence of CHES buffer; black triangles express the reaction in the presence of CAPS buffer.

Data set [5] in a line: Glycerol kinase activity by rate assay (relative activity of purified enzyme). The conditions noted are these: protein approximated from absorbance at 280 nm. It is filed as biochemical. As to the method: Generally, the activity was assayed by the method. Using glycerol as substrate, the enzyme activity was assayed on the basis of the amount of produced glycerol-3-phosphoric acid. By adding 0.1 M HEPES buffer of pH 7.9 to 0.2 ml of 0.5% 4-aminoantipyrine solution, 0.2 ml of 1.5% phenol solution, 200 U of the oxidase of glycerol-3-phosphoric acid, 80 U of peroxidase, and 48.4 mg of ATP, a total volume is adjusted to be 21 ml. The resulting solution was used as the stock solution for the following assays. To 3 ml of the assay stock solution, 50 μl of 0.3 M glycerol solution and 100 μl of the enzyme solution were added and mixed. Each reaction was assayed by recording the absorbance at 500 nm for 3 minutes with a spectrophotometer which is controlled to be 37° C., and calculating the change of the absorbance per minute on the initial linear part (triangle OD test). A blank test was conducted by adding 100 μl of a diluted enzyme solution (20 mM potassium phosphate buffer of pH 7.5 containing 0.2% bovine serum albumin) instead of the enzyme solution and carrying out the same procedures as described above and calculating the change of the absorbance per minute (triangle OD blank).
Based on the change of the absorbance as obtained, the enzyme activity of glycerol kinase was calculated according to the following formula. […]

A short description of data set [6]: Km value for glycerol (Lineweaver-Burk, assay method 1). The note with it: glycerol concentration changed. The data set is classed as biochemical. The procedure: as §1
The nature of data set [7]: Thermal stability of glycerol kinase. The note with it: 50 mM potassium phosphate buffer, pH 7.5, 15-min treatment. It is filed as physicochemical. As to the method: Glycerol kinase was dissolved in 50 mM potassium phosphate buffer of pH 7.5 to become about 10 U/ml and stored at each temperature for 15 minutes. Subsequently, glycerol kinase activity was assayed to determine the remaining activity.
After dissolving the glycerol kinase in 50 mM potassium phosphate buffer of pH 7.5 to become about 10 U/ml, glycerol kinases were stored at each temperature for 15 minutes to assay the remaining activity. […] Black circle expresses glycerol kinase of the present invention; black squares expresses glycerol kinase from Thermus fiavus.

Data set [8] in a line: Optimal temperature (assay method 2). The data set is classed as biochemical. The conditions noted are these: reaction in 20 mM HEPES buffer, pH 7.9 for 5 minutes. The procedure:
Glycerol kinase activity was assayed after reaction in […], pH 7.9 at each temperature for 5 minutes.
After dividing 3 ml of an active reaction solution (20 mM HEPES buffer of pH 7.9 containing 4 mM ATP and 2 mM magnesium chloride) in a test tube, 0.1 ml of a glycerol kinase solution after dilution to an appropriate concentration (about 1 U/ml of the activity measured according to the assay method 1) was added thereto and mixed thoroughly. Then, the reaction mixture is preliminarily heated at each temperature for about 3 minutes. Then, 0.05 ml of aqueous 0.3 M glycerol solution was added and mixed for initiating the reaction. After the reaction for exact 10 minutes, 1 ml of 1N hydrochloric acid was added to terminate the enzyme reaction. After adding 0.15 ml of the reaction-terminated solution to 3 ml of a chromogenic solution (0.2 M HEPES buffer of pH 7.9 containing 0.01% 4-aminoantipyrin, 0.02% phenol, 5 U/ml peroxidase and 16 U/ml glycerol-3-phosphoric acid oxidase) and mixing, reaction at 37° C. for about 5 minutes was carried out to measure the absorbance at 500 nm. Then, the absorbance of 1 mM L-glycerol-3-phosphoric acid solution was simultaneously measured. The amount of L-glycerol-3-phosphoric acid produced via each of the reactions was determined. […]

Consider one molecule from patent publication US7618800B2, “Glycerol kinase, which has high resistance against preservative” (Toyo Boseki Kabushiki Kaisha, priority 2002, dated 2009).

The term Km denotes the substrate concentration at which the rate is half of its maximum.

B1: glycerol kinase of the present invention: Recombinant glycerol kinase (SEQ ID NO:1) of Cellulomonas sp. JCM2471 gene, expressed in E. coli KM1 (pCGK12) and purified (protein)
chain: MADYVLAIDQGTTSSRAIVFNHSGEIYSTGQLEHDQIFPRAGWVEHNPEQIWNNVREVVGLALTRGNLTHEDIAAVGITNQRETAVVWDKTTGKPVYNAIVWQDTRTQKIVDELGGDEGAEKYKSIVGLPLATYFSGPKIKWILDNVEGAREKAEKGDLLFGNTDTWVLWNMTGGTEGGVHVTDVTNASRTMLMDLDTLSWREDIAADMGIPLSMLPDIRSSSEVYGHGRPRGLVPGVPIAGILGDQQAATFGQACFEVGQAKNTYGTGNFLLLNTGTEKVMSKNGLLTTVCYKIGDAPAVYALEGSIAVTGSLVQWLRDNLGMFEDAPDVEWLAGKVQDNGGAYFVPAFSGLFAPYWRPDARGALVGLTRYVNRNHIARAALEATAFQSREVVDAMNADSGVDLTELRVDGGMVANELLMQFQADQLGVDVVRPKVAETTALGAAYAAGIAVGFWKGEQDVIDNWAEDKRWSPSMESGERERLYRNWKKAVTKTMEWVDEDVEQ
modifications: Cellulomonas sp. JCM2471
notes: JCM2471 gene, expressed in E. coli KM1 (pCGK12) and purified
For B1, the “Optimal pH” value in data set [1] was “about 10.0”. Also, the Km in data set [2] is approximately 111 µM; in data set [6], approximately 6.9 µM. The Remaining activity ratio was approximately 100% in data set [3] (100 mg/L MIT, 50 mM potassium phosphate buffer pH 7.5, storage at 4° C. for one week); “about 92%” in data set [3] (100 mg/L MIT, 50 mM potassium phosphate buffer pH 7.5, storage at 25° C. for one week); not below 90% in data set [3] (storage at 25° C. for one week in coexistence with preservatives (sentence names none)). Besides, the “Stability in the coexistence of preservatives (in words)” value in data set [3] (compared with glycerol kinase derived from Thermus flavus) is “high stability in the coexistence of preservatives”. Moreover, the “pH stability (pH range with remaining activity of 90% or more)” value in data set [4] is 6.0-10.0. The Relative activity entry in data set [5] is “about 41.2 U/mg protein”. The “Thermal stability (temperature range with remaining activity of 90% or more)” value in data set [7] was not above 45 °C. Besides, the Optimal temperature entry in data set [8] is “about 50 °C”.
